These results are taken from publication PMC7794297.

B1: TrxR 2: recombinant human thioredoxin reductase 2, selenoenzyme (protein, UniProt Q9NNW7 37-524, looked up)
Thioredoxin reductase 2, …: QRDYDLLVVGGGSGGLACAKEAAQLGRKVAVVDYVEPSPQGTRWGLGGTCVNVGCIPKKLMHQAALLGGLIQDAPNYGWEVAQPVPHDWRKMAEAVQNHVKSLNWGHRVQLQDRKVKYFNIKASFVDEHTVCGVAKGGKEILLSADHIIIATGGRPRYPTHIEGALEYGITSDDIFWLKESPGKTLVVGASYVALECAGFLTGIGLDTTIMMRSIPLRGFDQQMSSMVIEHMASHGTRFLRGCAPSRVRRLPDGQLQVTWEDSTTGKEDTGTFDTVLWAIGRVPDTRSLNLEKAGVDTSPDTQKILVDSREATSVPHIYAIGDVVEGRPELTPIAIMAGRLLVQRLFGGSSDLMDYDNVPTTVFTPLEYGCVGLSEEEAVARHGQEHVEVYHAHYKPLEFTVAGRDASQCYVKMVCLREPPQLVLGLHFLGPNAGEVTQGFALGIKCGASYAQVMRTVGIHPTCSEEVVKLRISKRSGLDPTVTGCUG
In turn, B1 returned a Kobs (5% (mol) catalyst, 2.5% (v/v) DMSO, 190 μM 3, Tris pH 7.8, 6 °C, uncatalyzed 0.014 ± 0.001) of 0.035 ± 0.003 M⁻¹ s⁻¹. The “time until total completion of homodimerization” value (5% mol) is 5 days.
